Measurements as given in publication PMC5358782, “Affinity purification of human m-calpain through an intrinsically disordered inhibitor, calpastatin” (PLoS ONE, 2017).

Biological target: inactive C105A human m-calpain heterodimer (C105A large subunit with truncated small subunit) (human, UniProt P17655 20-700; P04632 1-268, C105A, Ca2+-bound during hCSD1 binding. C-terminal His tag of the large subunit omitted. The ΔG2 small-subunit limits are not printed (they are in the cited Hata 2012 paper); the 184-residue small subunit of)
Experiment: BLI; GST-immobilized hCSD1; purified C105A-calpain from the affinity method in solution
Conditions: both partners purified

Kd: 1.7 nM
B1: N-terminal glutathione S-transferase-tagged human calpastatin domain 1 (domain or fragment, UniProt P20810 137-277, looked up)
chain: AVPVESKPDKPSGKSGMDAALDDLIDTLGGPEETEEENTTYTGPEVSDPMSSTYIEELGKREVTIPPKYRELLAKKEGITGPPADSSKPIGPDDAIDALSSDFTCGSPTAAGKKTEKEESTEVLKAQSAGTVRSAAPPQEK
notes: synthetic gene in pGEX-4T-1; GST is fused N-terminally through a linker; the tag can be removed by thrombin; also called GST-hCSD1; GST-tagged hCSD1; source: E. coli BL21(DE3), purified (GSTrap FF); not shown: GST, N-terminal, kept
